Measurements from patent publication US20060058504A1, “Peptides capable of inducing attraction to the axonal growth and their use for treating neurodegenerative diseases” (Centre National de la Recherche Scientific (CNRS), priority 2002, published 2006).
Entries after “also recorded” stand apart in the source; their conditions may differ.

Assays:
[1] = test system: cortical axons repelled by Sema3A secreted from the ventral spinal cord; test: Co-culture of cortical slices and ventral spinal cord explants (axon guidance response to Sema3A); type: cell-based, mice; settings: chimera 3 μg/ml in culture medium
Description: Blocks of cortex were dissected from P0 (postnatal day 0) to P2 mice and cut into 250 μm thick slices with a McIlwain tissue chopper. The ventral part of the cervical spinal cord was dissected and cut into 250 μm thick slices. Co-culture of cortical slices and ventral spinal cord explants were performed in a three-dimensional plasma clot, as described previously (Castellani et al., 2000). Cortical slices were oriented in the plasma clot as indicated in FIG. 1B to give to axons equivalent chances to be deflected away or towards the spinal cord explant. Purified wild-type or mutant L1Fc chimeras were added to the culture medium (3 μg/ml). Inhibitors of the guanylyl cyclase (ODQ, 10^−5 M, Sigma) and NOS (7NI, […], Sigma) were added to the culture medium, either alone or with wild-type L1Fc (3 μg/ml). After one or two days in vitro (DIV), the cultures were fixed with 4% paraformaldehyde (PFA) and analyzed by phase contrast microscopy (Axiovert 35-M, Zeiss). A qualitative guidance index was attributed to the co-cultures, to assess the degree of repulsive (negative values) or attractive (positive values) effects (Castellani et al., 2000). The index ranged from −2 (when most fibers grew away from the spinal cord explant) to +2 (when most fibers grew towards the explant), with intermediate situations (index of −1 and +1 for moderate guidance effects). An index of zero was attributed to the cultures showing no preferential growth. Quantitative analysis of axon length and number of axons growing from cortical slices was performed as described previously (Castellani et al., 2000). A proximal and a distal region, each of them covering a 600 μm-piece of cortical tissue were determined for each culture. All fibers extending from these two regions were counted and the length of the three longest fibers was measured, using computer analysis software (Visiolab 2000, Biocom). Immunofluorescence labeling of axons was performed using the mouse anti-phosphorylated neurofilament antibody SMI31 (Stemberger and Meyer Inc.), and Texas red-conjugated secondary anti-mouse antibody (see result obtained for number of axons and axonal length in the following tables 1 and 2).
It has been previously developed an assay system using explants of ventral spinal cord co-cultured with cortical axons in order to determine the factors involved in axonal repulsion and attraction (Castellani et al., 2000). Using this system we have shown that Sema3A secreted from the ventral spinal cord repels cortical axons. In the presence of soluble wild-type L1Fc chimeric protein however, repulsion is switched to attraction (Castellani et al., […]). In the present study, we aimed to identify the L1 interactions underlying the switching process. As Ig domains have been implicated in binding of Ig CAMs to many of their ligands (Brümmendorf and Rathjen, 1996) we hypothesized that they would also be required for L1 Fc-mediated switching. […] L1 Fc chimeras containing pathological missense mutations affecting specific Ig domains (De Angelis et al., 1999 and FIGS. 1A, 1B) were assessed for their ability to reverse Sema3A repulsion to attraction.

F3, axonin-1 and TAX-1 = settings: F3, axonin-1 (and TAX-1 where stated); cited from earlier work
wild-type L1 = test: Two-color FACS aggregation assay (homophilic binding); settings: mixed aggregates at the 30-minute time-point; mutant/wild-type
Description: A two-color aggregation assay was developed, modified from the homophilic binding assay described by De Angelis et al. (1999). For the two-color assay, red and green fluorescent microsphere beads (0.6 um, Duke Scientific Corps.) were coated with anti-human IgG antibody (Fc specific; Sigma, 1-2136). 2.5 μg of wild type (red beads) or mutant (green beads) L1Fc-proteins were conjugated to 10 μl of antibody-coated beads by incubating for 2 hrs at 37° C. Excess unbound protein was removed by washing with PBS/5% FCS. For each mutant, a 1:1 mixture of wild-type L1 and mutant L1 coated beads was prepared, dissaggregated to produce a single bead suspension and allowed to form mixed aggregates at 37° C. with samples removed in duplicate over a 30-minute time course. Samples were diluted 1:5000 into ice cold PBS and the proportion of 2 colour aggregates was assessed using a fluorescence activated cell sorter (Becton Dickenson FACSort). Ten thousand particles were counted per sample and categorised as red only (WT-L1: WT-L1), green only (Mutant L1: Mutant L1) or mixed aggregates. Every mutant protein was assayed at least 3 separate times and standardised to a wild-type control conducted in parallel.

L1 = settings: mutant bound to itself; cited from earlier work
full length human L1 = target: T1, full length human L1 (Homo sapiens, UniProt P32004); test: Binding of L1Fc chimeras to COS cells expressing wild-type L1 (immunofluorescence)
T1 construct: transiently transfected with expression vectors encoding full length human L1; expressed in transfected cells; host or cells: COS7
Description: (§1) The mutant L1Fc chimeras were produced and purified as described previously (De Angelis et al., 1999). Briefly, COS-7 cells were transiently transfected with 10 μg DNA per 150 mm culture dish, the soluble Fc chimeric protein was allowed to accumulate in the media for 6 days and was recovered and purified by protein A-Sepharose affinity chromatography. In the binding experiments, L1Fcs were cross-linked to anti-human Fc antibodies (50 μg/ml, Jackson Immunoresearch) for 1 hr at 37° C. Binding detection to NP-1 requested concentrations of L1Fcs 10 folds higher than L1. Antibody conjugated L1-Fc protein was then incubated with monolayers of COS7 cells transiently transfected with expression vectors encoding full length human L1 or myc-tagged NP-1 where the cytoplasmic domain is deleted (gift of J. Raper, 2000 and Renzi et al., 1999). Following incubation, the cells were fixed with 4% PFA, and processed for double-immunofluorescence detection. NP-1 was detected using a mouse anti-c myc antibody (clone 9E10, Sigma) and L1 using a rat monoclonal anti-L1 antibody. Secondary antibody anti-c-myc (Texas-red conjugated anti-mouse antibodies) was used to detect NP-1, anti-L1 (Texas red conjugated anti-rat antibodies) to detect L1, and anti-Fc (FITC conjugated anti-rabbit antibodies) to detect bound L1Fc chimeras. After secondary antibody incubation, the cells were washed with PBS and mounted in Mowiol (Calbiochem).
Thus, Ig CAMs F3 and TAG-1 (the rodent homologue of axonin-1) ate unlikely to be axonal receptors for L1Fc in the reversion process. […] In the present study however, mutated L1Fc proteins were required to interact with wild-type L1 expressed on growth cones. To formally exclude a role for homophilic binding of L1 in the initiation of the reversion process, it was therefore necessary to examine whether homophilic binding of the mutated L1Fc chimeras to wild-type L1 was also disrupted. Mutated L1Fcs were therefore incubated with COS7 cells transfected with full-length wild-type L1 cDNA and binding was assessed by immunofluorescence. In parallel, homophilic binding of mutant/mutant and mutant/wild-type L1Fcs was compared in a two-color FACS aggregation assay, allowing a quantitative assessment to be made (see Methods). […] Similarly, in the two color FACS assay homophilic binding was restored to 74.4% and 90.5% of wild-type levels for A426D and H210Q respectively (FIG. 2B). […] This mutation however still promoted the L1 Fc induced switching of Sema3A repulsion to attraction in the co-culture assay. Thus, the ability of L1Fc to switch Sema3A repulsion is not dependent on homophilic binding. Consequently, the trans interaction of L1Fc with L1 in the receptor complex is not required for the change in growth cone responsiveness to Sema3A.

NP-1 = test: Binding of L1Fc chimeras to NP-1 expressing COS7 cells (immunofluorescence)
Description: as §1
Next, we examined the ability of the mutant L1 Fc chimeras to bind NP-1. COS7 cells were transfected with a vector encoding the extracellular and transmembrane domains of NP-1 fused to a myc tag (ANP-1, Renzi et al., J. Neurosci., 15:7870-7880, 1999), and incubated with the mutant L1Fc chimeras. Binding was detected by immunofluorescence. […] Binding of L120V, G121S and A426D L1Fcs to NP-1 is illustrated in FIG. 3.

T1 sequence (P32004 20-1257): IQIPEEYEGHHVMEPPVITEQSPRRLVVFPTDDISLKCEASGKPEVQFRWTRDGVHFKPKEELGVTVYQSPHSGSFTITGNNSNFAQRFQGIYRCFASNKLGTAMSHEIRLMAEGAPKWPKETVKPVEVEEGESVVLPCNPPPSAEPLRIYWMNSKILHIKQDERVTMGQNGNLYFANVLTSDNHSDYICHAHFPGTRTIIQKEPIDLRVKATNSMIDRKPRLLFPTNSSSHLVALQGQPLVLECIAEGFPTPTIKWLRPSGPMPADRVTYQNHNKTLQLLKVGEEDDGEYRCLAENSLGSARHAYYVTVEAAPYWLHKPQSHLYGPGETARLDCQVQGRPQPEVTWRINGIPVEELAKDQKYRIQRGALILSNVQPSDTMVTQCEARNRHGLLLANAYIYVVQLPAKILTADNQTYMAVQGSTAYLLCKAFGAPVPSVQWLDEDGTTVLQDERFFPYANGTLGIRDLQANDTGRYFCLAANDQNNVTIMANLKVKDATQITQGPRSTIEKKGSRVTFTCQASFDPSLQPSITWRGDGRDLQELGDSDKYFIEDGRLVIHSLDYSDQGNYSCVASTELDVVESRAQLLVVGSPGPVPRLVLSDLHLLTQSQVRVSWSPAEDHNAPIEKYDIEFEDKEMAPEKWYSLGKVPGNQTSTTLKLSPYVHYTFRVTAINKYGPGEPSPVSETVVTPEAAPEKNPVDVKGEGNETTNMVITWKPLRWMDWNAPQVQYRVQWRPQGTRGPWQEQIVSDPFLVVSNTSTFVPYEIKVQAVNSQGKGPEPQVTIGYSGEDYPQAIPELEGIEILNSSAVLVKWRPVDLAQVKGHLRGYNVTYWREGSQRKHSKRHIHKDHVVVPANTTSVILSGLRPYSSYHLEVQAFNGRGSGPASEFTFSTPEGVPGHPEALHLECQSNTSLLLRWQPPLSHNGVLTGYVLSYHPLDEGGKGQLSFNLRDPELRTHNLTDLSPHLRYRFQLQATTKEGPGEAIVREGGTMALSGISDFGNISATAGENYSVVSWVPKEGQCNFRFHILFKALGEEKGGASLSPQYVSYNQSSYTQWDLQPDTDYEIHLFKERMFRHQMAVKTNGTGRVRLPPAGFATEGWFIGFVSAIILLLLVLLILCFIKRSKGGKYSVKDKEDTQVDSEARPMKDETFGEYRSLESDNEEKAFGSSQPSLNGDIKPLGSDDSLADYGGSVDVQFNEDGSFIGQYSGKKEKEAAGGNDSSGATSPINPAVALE
Chain of wild-type L1 (P32004 with tags, fused parts or gaps limits assumed): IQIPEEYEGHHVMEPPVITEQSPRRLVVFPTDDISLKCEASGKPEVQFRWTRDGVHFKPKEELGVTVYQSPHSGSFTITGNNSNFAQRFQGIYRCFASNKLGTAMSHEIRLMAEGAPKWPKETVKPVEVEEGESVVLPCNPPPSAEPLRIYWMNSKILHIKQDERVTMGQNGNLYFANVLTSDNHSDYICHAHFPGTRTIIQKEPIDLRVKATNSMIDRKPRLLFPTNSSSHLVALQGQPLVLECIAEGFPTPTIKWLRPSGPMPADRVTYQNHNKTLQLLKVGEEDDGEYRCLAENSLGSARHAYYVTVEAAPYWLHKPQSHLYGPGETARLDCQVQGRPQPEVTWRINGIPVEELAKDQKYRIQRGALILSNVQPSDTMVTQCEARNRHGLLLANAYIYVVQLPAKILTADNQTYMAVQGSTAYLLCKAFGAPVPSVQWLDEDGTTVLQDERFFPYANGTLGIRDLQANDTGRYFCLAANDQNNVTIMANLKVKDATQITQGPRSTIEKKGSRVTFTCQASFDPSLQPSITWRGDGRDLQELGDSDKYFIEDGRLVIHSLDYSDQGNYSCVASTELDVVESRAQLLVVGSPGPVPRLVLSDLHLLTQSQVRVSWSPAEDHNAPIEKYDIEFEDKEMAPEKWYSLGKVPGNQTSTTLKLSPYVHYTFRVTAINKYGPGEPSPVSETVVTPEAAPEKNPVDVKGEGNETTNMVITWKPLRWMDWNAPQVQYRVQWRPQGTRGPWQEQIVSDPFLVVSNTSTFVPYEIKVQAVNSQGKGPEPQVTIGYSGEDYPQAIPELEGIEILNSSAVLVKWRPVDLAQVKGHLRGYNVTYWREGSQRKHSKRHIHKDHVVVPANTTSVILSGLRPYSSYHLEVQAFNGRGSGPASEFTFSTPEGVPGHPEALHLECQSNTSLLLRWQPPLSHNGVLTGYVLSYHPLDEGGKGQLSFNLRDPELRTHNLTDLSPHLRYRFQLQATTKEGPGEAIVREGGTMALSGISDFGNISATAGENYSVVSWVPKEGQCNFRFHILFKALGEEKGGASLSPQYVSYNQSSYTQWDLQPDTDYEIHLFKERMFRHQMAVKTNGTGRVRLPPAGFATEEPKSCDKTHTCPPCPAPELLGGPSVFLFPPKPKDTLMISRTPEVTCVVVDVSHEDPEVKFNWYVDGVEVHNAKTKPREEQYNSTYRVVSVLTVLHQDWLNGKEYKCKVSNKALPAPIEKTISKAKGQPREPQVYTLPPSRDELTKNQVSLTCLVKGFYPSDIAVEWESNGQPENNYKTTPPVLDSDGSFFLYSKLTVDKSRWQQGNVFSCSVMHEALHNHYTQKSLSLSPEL

B1: G121S: L1Fc chimera with missense mutation G121S in Ig domain 1 (protein)
chain: IQIPEEYEGHHVMEPPVITEQSPRRLVVFPTDDISLKCEASGKPEVQFRWTRDGVHFKPKEELGVTVYQSPHSGSFTITGNNSNFAQRFQGIYRCFASNKLSTAMSHEIRLMAEGAPKWPKETVKPVEVEEGESVVLPCNPPPSAEPLRIYWMNSKILHIKQDERVTMGQNGNLYFANVLTSDNHSDYICHAHFPGTRTIIQKEPIDLRVKATNSMIDRKPRLLFPTNSSSHLVALQGQPLVLECIAEGFPTPTIKWLRPSGPMPADRVTYQNHNKTLQLLKVGEEDDGEYRCLAENSLGSARHAYYVTVEAAPYWLHKPQSHLYGPGETARLDCQVQGRPQPEVTWRINGIPVEELAKDQKYRIQRGALILSNVQPSDTMVTQCEARNRHGLLLANAYIYVVQLPAKILTADNQTYMAVQGSTAYLLCKAFGAPVPSVQWLDEDGTTVLQDERFFPYANGTLGIRDLQANDTGRYFCLAANDQNNVTIMANLKVKDATQITQGPRSTIEKKGSRVTFTCQASFDPSLQPSITWRGDGRDLQELGDSDKYFIEDGRLVIHSLDYSDQGNYSCVASTELDVVESRAQLLVVGSPGPVPRLVLSDLHLLTQSQVRVSWSPAEDHNAPIEKYDIEFEDKEMAPEKWYSLGKVPGNQTSTTLKLSPYVHYTFRVTAINKYGPGEPSPVSETVVTPEAAPEKNPVDVKGEGNETTNMVITWKPLRWMDWNAPQVQYRVQWRPQGTRGPWQEQIVSDPFLVVSNTSTFVPYEIKVQAVNSQGKGPEPQVTIGYSGEDYPQAIPELEGIEILNSSAVLVKWRPVDLAQVKGHLRGYNVTYWREGSQRKHSKRHIHKDHVVVPANTTSVILSGLRPYSSYHLEVQAFNGRGSGPASEFTFSTPEGVPGHPEALHLECQSNTSLLLRWQPPLSHNGVLTGYVLSYHPLDEGGKGQLSFNLRDPELRTHNLTDLSPHLRYRFQLQATTKEGPGEAIVREGGTMALSGISDFGNISATAGENYSVVSWVPKEGQCNFRFHILFKALGEEKGGASLSPQYVSYNQSSYTQWDLQPDTDYEIHLFKERMFRHQMAVKTNGTGRVRLPPAGFATE
modifications: left off: a dimerising Fc or GST
For B1, the “switching of Sema3A repulsion to attraction by L1Fc chimera” value [1] is given as “able to reverse Sema3A repulsion to attraction; also recorded: efficiently induce switching of Sema3A repulsion to attraction; also recorded: switched Sema3A from repulsion to attraction to the same extent as wild type L1Fc”, the “effect of mutation on heterophilic binding” value (F3, axonin-1 and TAX-1) is given as “reduce” and the “homophilic binding to wild-type L1, percent of wild-type levels” value (wild-type L1) is given as “extremely low; also recorded: almost abolished homophilic binding to wild-type L1”. For the same molecule, the “effect of mutation on homophilic binding” value (L1) was “reduce homophilic binding”, the “binding to wild-type L1 expressed in COS cells” value (full length human L1) was “did not; also recorded: almost abolished homophilic binding to wild-type L1” and the “binding to NP-1 expressing cells” value (NP-1) was “bound to NP-1 expressing cells”.
